Assays:
[1] = biological target: T1, protein A56 of the oncolytic virus OTS-412 (vaccinia virus (OTS-412), UniProt P08714 17-315); experiment: flow cytometry, A549 cells treated with OTS-412
T1 construct: also called OTS-412-A56; protein A56 variant
T1 chain: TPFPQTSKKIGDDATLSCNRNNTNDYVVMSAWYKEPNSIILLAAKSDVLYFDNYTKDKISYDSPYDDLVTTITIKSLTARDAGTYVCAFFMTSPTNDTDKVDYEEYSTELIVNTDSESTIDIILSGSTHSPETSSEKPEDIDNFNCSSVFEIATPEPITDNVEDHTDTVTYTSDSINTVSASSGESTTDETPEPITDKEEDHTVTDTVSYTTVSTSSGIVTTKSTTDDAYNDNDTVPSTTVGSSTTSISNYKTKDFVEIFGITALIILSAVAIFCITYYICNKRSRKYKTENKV

[2] = biological target: T1, protein A56 of the oncolytic virus …; experiment: flow cytometry, MCF7 cells treated with OTS-412
[3] = biological target: T2, protein A56 of the oncolytic virus WOTS-418 (vaccinia virus (WOTS-418, Western …, UniProt Q01218 17-314)); experiment: flow cytometry, A549 cells treated with WOTS-418
T2 construct: also called WOTS-418-A56; protein A56 variant

[4] = biological target: T2, protein A56 of the oncolytic virus …; experiment: flow cytometry, MCF7 cells treated with WOTS-418
[5] = biological target: T1, protein A56 of the oncolytic virus …; experiment: flow cytometry, PC3 cells treated with OTS-412 (overlay, FIG. 74)
[6] = biological target: T2, protein A56 of the oncolytic virus …; experiment: flow cytometry, PC3 cells treated with WOTS-418 (overlay, FIG. 75)
[7] = biological target: T1, protein A56 of the oncolytic virus …; experiment: flow cytometry, PC3 cells treated with OTS-412
[8] = biological target: T2, protein A56 of the oncolytic virus …; experiment: flow cytometry, PC3 cells treated with WOTS-418

Row | Binder | binding signal (flow cytometry, %) [1] [%] | binding signal (flow cytometry, %) [2] [%] | binding signal (flow cytometry, %) [3] [%] | binding signal (flow cytometry, %) [4] [%] | binding signal (flow cytometry, %) [5] [%] | binding signal (flow cytometry, %) [6] [%] | binding signal (flow cytometry, %) [7] [%] | binding signal (flow cytometry, %) [8] [%]
1 | A56-44G01 (Ab55) (antibody, V domains shown) VH: QVQLVESGGGVVQPGRSLRLSCAASGFTFSSYAMHWVRQAPGKGLEWVAVISYDGSNKYYADSVKGRFTISRDNSKNTLYLQMNSLRAEDTAVYYCAKDLWGRVGALVGALDLWGQGTMITVSS VL: SYELTQGPSLSVSPGQTANIICSGDNLRTKYVSWYQQKPGQSPILVIYQDTRRPSGIPARFSGSNSGNTATLTISGTQAMDEADYYCQAWDSGNYVFGTGTKVTVL | ≥ 90 | ≥ 80 | ≥ 90 | ≥ 80 | ≥ 60 | ≥ 60 |  | 
2 | A56-02B01 (Ab14) (antibody, V domains shown) VH: QVQLVQSGGGVVQPGRSLRLSCAASGFTFSNYGMHWVRQAPGKGLEWMAFIWFDGSNKFYADSVKGRFTVSRDNSKNTLFLQMNSLRAEDTAVYYCAKAAHLWGAFDIWGQGTMVTVSS VL: DIQMTQSPDTLSLSPGERATLSCRASQSVSSYLAWYQQKPGQAPRLLIYGASNRATGIPARFSGSGSGTDFALTIGRLEPEDFAVYYCQQYATSPLSFGGGTKVEIK | ≥ 90 | ≥ 80 | ≥ 90 | ≥ 80 | ≥ 60 | ≥ 60 |  | 
3 | A56-02A02 (Ab13) (antibody, V domains shown) VH: QMQLVESGAEVKKTGSSVKVSCKASGDTLTYRFLHWVRQAPGQAPEWMGWITPFNDNTNYAQKFQDRVTITRDRSMSTAYMELSSLRSEDTAVYYCATGGGNNYYGMEVWGQGTPITVSS VL: SYELTQPLSLSVSPGQTASITCSGDKLGDKFTSWYQQQPGQSPVLVIYQDAKRPSGIPERFSGSNSGSTATLTISGTQSMDEADYYCQAWDSSSVVFGGGTKLTVL | ≥ 90 | ≥ 80 | ≥ 90 | ≥ 80 | ≥ 60 | ≥ 60 |  | 
4 | A56-02C06 (Ab18) (antibody, V domains shown) VH: QVQLVESGGGLVQPGKSLRLSCAASGFTFSTYGMTWVRQAPGKGLEWVSGISGGGSSTNYADSVKGRFIISRDNSNNTLYLQMNSLRAEDTAVYYCARWGVMLSFDYWGQGTPVTVSS VL: DIQMTQSPSTLPASVGDRVTITCRASYSVSPWLAWYQQKPGKAPKLLIYKASTLESGVPSRFSGSGSGTEFTLTISSLQPDDFATYYCQQFNSYMMYTFGQGTKLEIK |  | ≥ 80 |  | ≥ 80 | ≥ 60 | ≥ 60 |  | 
5 | A56-01F12 (Ab08) (antibody, V domains shown) VH: QVQLVESGGEVKKPGSSVKVSCKASGGSFSTYAISWVRQAPGQGLEWMGRIIPISDIRNYAQKFQGRVTLTADRATSTAYMELSSLRSEDTAVYYCAKGGRLLSTHFDYWGQGTLVTVSS VL: QLVLTQPPSVSAAPGQKVTISCSGSSSNIGNNYVSWYQQLPGTAPKLLIYDDDKRPSGIPDRFSGSKSGTSATLGITGLQTGDEADYYCGTWHSGLSAGVVFGGGTKLTVL | ≥ 90 | ≥ 80 | ≥ 90 | ≥ 80 | ≥ 60 | ≥ 60 |  | 
6 | A56-02C07 (Ab19) (antibody, V domains shown) VH: QVQLVESGAEVRRPGSSVKVSCKTSGVTFSGYVLSWVRQAPGHGLEWMGRIIPLIDVENYAREFQGRMKITADKSTNTVYMELNNLRSEDTAVYYCAKSVVRGLDYYYYGFDVWGQGTTVTVSS VL: SYELTQPPSLSVAPGKTARITCGGNNIGSKSVHWYQQKPGQAPRLVTYYDGNRPSGIPERFSGSNSGNTATLIISRVEAGDEADYYCQVWDSSSDQGVFGTGTKVTVL | ≥ 90 | ≥ 80 | ≥ 90 | ≥ 80 | ≥ 60 | ≥ 60 |  | 
7 | LakePharma variant3 (antibody, also called LP variant3; LPvariant03) VH: QVQLQQSGPELVKPGASMKLSCKASGYSFTGYTMNWVKQSHGKNLEWIGLINPYNGGTSYNQKFKGKATLTVDKSSSTAYMELLSLTSEDSAVYYCARSHYRYDYWYFDVWGAGTTVTVSSAKTTPPSVYPLAPGSAAQTNSMVTLGCLVKGYFPEPVTVTWNSGSLSSGVHTFPAVLQSDLYTLSSSVTVPSSTWPSETVTCNVAHPASSTKVDKKIVPRDCGCKPCICTVPEVSSVFIFPPKPKDVLTITLTPKVTCVVVDISKDDPEVQFSWFVDDVEVHTAQTQPREEQFNSTFRSVSELPIMHQDWLNGKEFKCRVNSAAFPAPIEKTISKTKGRPKAPQVYTIPPPKEQMAKDKVSLTCMITDFFPEDITVEWQWNGQPAENYKNTQPIMDTDGSYFVYSKLNVQKSNWEAGNTFTCSVLHEGLHNHHTEKSLSHSPGK VL: DVVMTQTPLSLPVSLGDQASISCRSSQSLVHSNGNTYLHWYLQKPGQSPKLLIYKVSNRFSGVPDRFSGSGSGTDFTLKISRVEAEDLGVYFCSQSTHVPPFTFGSGTKLEIKRADAAPTVSIFPPSSEQLTSGGASVVCFLNNFYPKDINVKWKIDGSERQNGVLNSWTDQDSKDSTYSMSSTLTLTKDEYERHNSYTCEATHKTSTSPIVKSFNRNEC | ≥ 93 |  | ≥ 93 |  |  |  | ≥ 90 | ≥ 90
8 | LakePharma variant4 (antibody, also called LP variant4; LPvariant04) VH: EVQLQQSGPELVKPGASMKLSCKASGYSFTGYTMNWVKQSHGKNLEWIGLINPYNGGTSYNQKFKGKATLTVDKSSSTAYMELLSLTSEDSAVYYCARSHYRYDYWYFDVWGAGTTVTVSSAKTTPPSVYPLAPGSAAQTNSMVTLGCLVKGYFPEPVTVTWNSGSLSSGVHTFPAVLQSDLYTLSSSVTVPSSTWPSETVTCNVAHPASSTKVDKKIVPRDCGCKPCICTVPEVSSVFIFPPKPKDVLTITLTPKVTCVVVDISKDDPEVQFSWFVDDVEVHTAQTQPREEQFNSTFRSVSELPIMHQDWLNGKEFKCRVNSAAFPAPIEKTISKTKGRPKAPQVYTIPPPKEQMAKDKVSLTCMITDFFPEDITVEWQWNGQPAENYKNTQPIMDTDGSYFVYSKLNVQKSNWEAGNTFTCSVLHEGLHNHHTEKSLSHSPGK VL: DVVMTQTPLSLPVSLGDQASISCRSSQSLVHSNGNTYLHWYLQKPGQSPKLLIYKVSNRFSGVPDRFSGSGSGTDFTLKISRVEAEDLGVYFCSQSTHVPPFTFGSGTKLEIKRADAAPTVSIFPPSSEQLTSGGASVVCFLNNFYPKDINVKWKIDGSERQNGVLNSWTDQDSKDSTYSMSSTLTLTKDEYERHNSYTCEATHKTSTSPIVKSFNRNEC | ≥ 93 |  | ≥ 93 |  |  |  | ≥ 90 | ≥ 90
9 | A56-35G07 (Ab51) (antibody, V domains shown) VH: QMQLVQSGAEVRKPGSSVKVSCKASGDTFSSYAVSWVRQAPGLGLEWMGRTIPRLGATSYAQNFQGRVSITADKSTNTVYMELSGLRSEDTAVYYCARYIPLVRGVRQPRDDFEIWGPGTMITVSS VL: DIQMTQSPGTLSLSPGERATLSCRASQSVSSSYLAWYQQKPGQAPRLLIYGASSRATGIPDRFSGSGSGTDFTLTISSLEPEDFAVYYCQHRKSWPPGATFGQGTRLEIK | ≥ 90 | ≥ 80 | ≥ 90 | ≥ 80 | ≥ 60 | ≥ 60 |  | 
10 | A56-01A02 (Ab01) (antibody, V domains shown) VH: QMQLVQSGAEVKKPGSSVKVSCKASGGTFSSYAISWVRQAPGQGLEWMGGIIPIFGTANYAQKFQGRVTMTRDTSTSTVYMELSSLKSEDTAVYYCARFVFGSGTYLDSWGQGTLVTVSS VL: not shown | ≥ 90 | ≥ 80 | ≥ 90 | ≥ 80 | ≥ 60 | ≥ 60 |  | 
11 | A56-01A04 (Ab03) (antibody, V domains shown) VH: QVQLVESGAEVKKPGSSVKVSCKASGGTFSYRYLHWVRQASGQALEWMGWITPFNGYTNYAQKFQDRVTITRDRSMSTAYMELSSLRSEDTAVYYCVTGLGKTNLDSWGQGTLVTVSS VL: DIVMTQTPLSSPVTLGQPASISCRSSQSLVHSNGNTYLSWLQQRPGQPPRLLIYQISKRFSGVPDRFSGSGAGTDFTLKISRVEAEDVGVYYCMQLTQFPLTFGGGTKVEIK | ≥ 90 | ≥ 80 | ≥ 90 | ≥ 80 | ≥ 60 | ≥ 60 |  | 
